Assay results published in patent US20030125257A1, “Assay for identifying beta secretase inhibitors” (priority 2001, published 2003).
Square brackets hold non-standard residues; d marks the D form. Ends that are not written are not given here. Sta = CC(C)C[C@H](N)[C@@H](O)CC(=O)O

Target: T1, purified BACE (Homo sapiens, UniProt P56817)
T1 construct: Pooled fractions containing full-length BACE were passed over a 5 ml HiTrap Q column; 6xHis (C); made in house; host or cells: Sf9 insect cells (recombinant baculovirus, pFASTBAC1)
T1 sequence (P56817 46-501): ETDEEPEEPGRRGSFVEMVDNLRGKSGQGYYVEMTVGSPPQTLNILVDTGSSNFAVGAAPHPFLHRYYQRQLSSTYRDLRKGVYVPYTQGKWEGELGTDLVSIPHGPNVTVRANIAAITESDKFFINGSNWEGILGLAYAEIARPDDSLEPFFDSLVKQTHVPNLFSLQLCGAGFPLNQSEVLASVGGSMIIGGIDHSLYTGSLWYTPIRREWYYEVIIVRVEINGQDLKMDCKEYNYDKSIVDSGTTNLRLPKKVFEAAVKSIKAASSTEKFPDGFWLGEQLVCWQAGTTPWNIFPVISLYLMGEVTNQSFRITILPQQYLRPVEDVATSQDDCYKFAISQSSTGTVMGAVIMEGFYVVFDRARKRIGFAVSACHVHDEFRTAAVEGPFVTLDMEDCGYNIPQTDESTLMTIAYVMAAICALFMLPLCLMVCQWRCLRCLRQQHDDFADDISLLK
Assay: Competitive radioligand binding assay (RLBA)
Details: binding to purified BACE as in example 6, FIG. 4
Procedure: 96 well microplates (Optiplate Packard) are coated with purified BACE protein using a concentration of 1 μg/ml in 30 mM sodium citrate buffer adjusted to pH 5.5. The coating is achieved by incubation of 100 μl/well for 1-3 days at 4° C. The plate is then washed with 2×300 μl/well of 10 mM citrate pH 4.1. To each well 100 μl binding buffer (30 mM citrate, 100 mM NaCl, 0.1% BSA, pH 4.1) is dispensed. The test compound (peptide H-4848 in FIGS. 4A and B) is added in 5 μl from a DMSO stock solution or appropriate dilutions. To this the tracer (tritiated Compound A) is added in 10 μl/well from a 10 μCi/ml stock solution in binding buffer. After incubation for 1.5-2 hours in a humid chamber at ambient temperature the plate is washed with 2×300 μl/well water and flipped on a dry towel. Following the addition of 50 μl/well MicroScint20 (Packard) the plate is sealed and vibrated for 5 seconds. The bound radioactivity is counted on a Topcount (Packard). Total binding is typically between 2000 and 10000 cpm/well depending mainly on the purity and concentration of the BACE protein. Non-specific binding as assessed by competition with >1 μM peptide H-4848 (Bachem #H-4848) is typically between 30 and 300 cpm/well. The IC-50 values are calculated by Microsoft Excel FIT.

## tritiated compound A: Compound A with iodine exchanged for 3H by reduction on palladium; tracer of the binding assay (EVN[Sta]VAE[Tyr(3H2)]-NH2)
  equilibrium binding isotherm (Scatchart analysis): single binding site isotherm
